Test: soluble on expression in E. coli; label from the status in PepcDB or PDB records

| Sequence | soluble on expression in E. coli |
| --- | --- |
| MPLRPQRPCRAQGCRSLHRNANGYCDGHADLAAEQAKAWATRKGSGRGGRPWRRKRERILKRDQYLCRCDDCAQLGRIREAHEVDHIVALAHGGTDDDDNLRAINRDCHKAKTQRESKTIKKLEHHHHHH | not soluble |
| MKRKVQVKNITIGEGRPKICVPIIGKNKKDIIKEAKELKDACLDIIEWRVDFFENVENIKEVKEVLYELRSYIHDIPLLFTFRSVVEGGEKLISRDYYTTLNKEISNTGLVDLIDVELFMGDEVIDEVVNFAHKKEVKVIISNHDFNKTPKKEEIVSRLCRMQELGADLPKIAVMPQNEKDVLVLLEATNEMFKIYADRPIITMSMSGMGVISRLCGEIFGSALTFGAAKSVSAPGQISFKELNSVLNLLHKSIN | not soluble |
| MTSPSSASPDGHGARLDAQSIRFERLLPGPIERVWAWLADADKRARWLAGGELPRQPGQTFELHFNHAALTAETAPARYAQYDRPIVARHTLLRCEPPRVLALTWGGGAGEAPSEVLFELSEAGEQVRLVLTHTRLADRAAMLDVAGGWHAHLAVLAGKLAGQAPPPFWTTLAQAEQDYEQRLLEHHHHHH | soluble |
| MAHHHHHHMFLRPHEINILMNEMKIIYEFKKEYYEIILNENNADDNVIDLFEKNTNKCNIEIKPYDDINSDLLDFDQFKMFNIDKDDIKKKNEDKKDEDRIKYILDKESYNNSIDKLNDNSCDESCYITDDELCKQINNPFDNTYNNKFVVKYKEYFEENSFIVKKGDIYGADFLLYITEQKYAHSLYAVYIIYKHYILRDLIRILRVSHSIKKKVILILWNELNCFNISDTLVYIKSYKYK | soluble |
| MGSDKIHHHHHHMQEERSEKKIGPFKFQSNFEWKEFPQEEFEWFVKEVEKRFGLNLSSYKPQRVKRRTELLLRKYNVGYREYLNMLIKDKKYLDEFMDKMTINVTEFFRNPEKWWELRDEIIPLIAKNSLRMKFWSAGCSSGEEPYSLAILVHELNLSYKTRILATDIDIGVLRRAQEGIYEERAFVSTPKEYLEKYFEKLPDGRYRIKDSVKKIVEFKRHDLLKDPFEKNFDLIVCRNVVIYFEPEAKNELYRKFAESLKPGGFLFVGNTERIFNYKELGFEIYKPFIYRKVK | not soluble |
| MTQTTQSPALIASQSSWRCVQAHDREGWLALMADDVVIEDPIGKSVTNPDGSGIKGKEAVGAFFDTHIAANRLTVTCEETFPSSSPDEIAHILVLHSEFDGGFTSEVRGVFTYRVNKAGLITNMRGYWNLDMMTFGNQE | soluble |
| GPGSGPVFVQEPSHVMFPLDSEEKKVKLSCEVKGNPKPHIRWKLNGTDVDIGMDFRYSVVDGSLLINNPNKTQDAGTYQCIATNSFGTIVSREAKLQFAYLENFKTRTRSTVSVRRGQGMVLLCGPPPHSGELSYAWIFNEYPSYQDNRRFVSQETGNLYIAKVEKSDVGNYTCVVTNTVTNHKVLGPPTPLILRNDGVMGEYEPKIEVQFPETVPAEKGTTVKLECFALGNPVPTILWRRADGKPIARKARRHKSNGILEIPNFQQEDAGSYECVAENSRGKNVAKGQLTFYAQPNWVQIINDIHVAMEESVFWECKANGRPKPTYRWLKNGDPLLTRDRIQIEQGTLNITIVNLSDAGMYQCVAENKHGVIFSSAELSVIAE | soluble |
| MTTPLAQRIKSLIRLNGPLSVTDFFSLCLADPEHGYYKSREPFGRSGDFITAPEVSQLFGEMLGVFVVHAWQRHGAPAQTQLVEIGPGRGTMMSDMLRVIRRIAPPLYETMRVHLVETSPRLSAIQKETLTAHADRLTWHDSFDDVPEGFLLLVANELFDAIPIRQFVRTPQGFRERVVSLDANGELVFSTGLAGIDPTLLPPQPERQQLGTVFEVSPAREAVMTAICQRLSVHGGTALAIDYGHLVAGYGDTLQAMRNHAFDPPLAHPGEADLTSHVDFESLVKTAQATGVHVNGALRQGDFLHGLGLKERASALAAKATPDQTLEIAEAVNRLAGEGAGKMGELFKVIAVSSPALHLLPFRAVDLEHHHHHH | soluble |
| MFHGIPATPGIGAPGNKPELYEEVKLYKNAREREKYDNMAELFAVVKTMQALEKAYIKDCVSPSEYTAACSRLLVQYKAAFRQVQGSEISSIDEFCRKFRLDCPLAMERIKEDRPITIKDDKGNLNRCIADVVSLFITVMDKLRLEIRAMDEIQPDLRELMETMHRMSHLPPDFEGRQTVSQWLQTLSGMSASDELDDSQVRQMLFDLESAYNAFNRFLHALEHHHHHH | not soluble |
| VISCDDVPEDLETDHLFSSQMVAVVAPEHELAQREAITFDEFFEHELVMFQHGYFHREFLDHVSEEHGFSMKSSFETNLLPLILSIVRQEFAITALLELVTQNEKGVVGIPFHPPVTLDLALAWRKEGYLSIADRTFIDFVKRYV | not soluble |
| RVSLLKRKYKRVTTIAERTRRAQSETDRRNYTAASKARTQAQRSSKPQRTRASSRSRRDNSVTVEELMRRRQEQQQTGAKSFAPRPTRTAAQREAAERDLTRRLVNPDPEIHRTRTFDDDLYS | not soluble |
| MAMNNILGLFAQSPLKPLQKHSVKVTECSELLEPFFEATFKQDWDEAIKVREQIIDLERRADALKREIRLKLPRGLFLPVERTDLLELVTQLDKLANYSRDISGRIIGRQLVIPEAMQATFRKFLSRSLDSTRQVRKVLAELDKLLETGFRGRELKFVNNMILELDQIEDDTDQIQIVLRRTLRGLEQEFNPIDVIFLYKCIERVSILADQAQRVGSRIELMLAKALEHHHHHH | soluble |
| MGSDKIHHHHHHMADLKKQIASGKIAPVYFFQGPESWLKEEIETQLKAAIFPSENEAALNTLVLYGPDLTLGQIVSAASEYPMFTEKKLVVVRQFDKLKKVTDKTESQRQEKSLLSYLSDPPSFTVLVLDADEIEKTELEKAPYKHLKAFRHDFGAIKNAEIFAAERAREAGWEFEPEALKTFSGYIEPSSRLICQEIEKLTLYASNKRPERRITLDDVCDCVGISRKYNVFELEKALVSKNLRQCSGIALMIMEQEGQKEGLMNIVRYLTTFFLRIWKLQTPGAQQLSLQETAAMLGMYGRQEYFAKNFIGYARQFSAAETENAILALRDADAALKGIIPSPDDRFTLLKLMQQLFN | not soluble |
| MLFNLLGKPLKICGCSPRTGWYLDGYCKTDQSDLGNHSICSVVTDTFLKYTKSQGNNLIDPNLLMEFPGLKAGDHWCLCAERWEQARIDGVAPPIIIESTNLSATQVIPLNILKSFAFEII | not soluble |
| MHHHHHHSSGVDLGTENLYFQSMLAVHFDKPGGPENLYVKEVAKPSPGEGEVLLKVAASALNRADLMQRQGQYDPPPGASNILGLEASGHVAELGPGCQGHWKIGDTAMALLPGGGQAQYVTVPEGLLMPIPEGLTLTQAAAIPEAWLTAFQLLHLVGNVQAGDYVLIHAGLSGVGTAAIQLTRMAGAIPLVTAGSQKKLQMAEKLGAAAGFNYKKEDFSEATLKFTKGAGVNLILDCIGGSYWEKNVNCLALDGRWVLYGLMGGGDINGPLFSKLLFKRGSLITSLLRSRDNKYKQMLVNAFTEQILPHFSTEGPQRLLPVLDRIYPVTEIQEAHKYMEANKNIGKIVLELPQ | soluble |
| MGSDKIHHHHHHMNIQTFMLPSQKVSPELEILHADLQTEGQHPPILFLHGYTSGAWQFAQHWMPTLQANGWQSFALNLRGHGGSAGRETVTTARFLDYADDVARAIAYVRGQTDQTPILIGHSLGSVLARHYAAEHSVPGLGLLITIGMQGFMGWMMKRYPLQGMAGMMTGRPSAMFAKFGPQYDVMYAGHNKETVRGNVERLMAQPDSDKVFMDLSKLKLGLPAKSTPTFVMAGTRDPIASVESVEALGRSYAVEPVMLQDKAHDIVAGPDWNDGLQHLQAWLETAKF | not soluble |
| MDSGINNISRFRIDHSFHKLHYAMHSAHSHTYYELFYMMHGNCTISIDNRLFTLSEGNIIFIPANSVHRTSYIGELVPERTYIEFSKDYIETISQTLGKNWAEHNLWGHILYIEKEKREKIDFLFREIQKEYDIVDGYSDCCIRQLFQYLIINLIRLDRNTKDIKEFITNSDNKINQNMIIAAKYIAENFKNDITLKDVASHLNLNPSYFSSKFKAFNNIGFAEYLRNIRVNHAEWYLIETDLSLSDIASECGFCNSNYFGDTFKLVNGISPSEFRKNNKPKKAEN | not soluble |
| AAAMKLAYWMYAGPAHIGTLRIASSFKNVHGIMHAPLGDDYFNVMRSMLERERDFTPVTASIVDRHVLARGSQEKVVDNIIRKDTEEHPDLIVLTPTCTSSILQEDLQNFVRRASLSTTADVLLADVNHYRVNELQAADRTLEQIVQFYIDKARRQGTLGTSKTPTPSVNIIGITTLGFHNQHDCRELKQLMADLGIQVNLVIPAAATVHDLQRLPQAWFNLVPYREIGGLTAQYLEREFGQPSVRITPMGVVETARCIRAIQGVLNAQGAGVNYEAFIEQQTREVSQAAWFSRSIDCQNLTGKKAVVFGDNTHAAAMTKILSREMGIHVVWAGTYCKYDADWFRAEVAGFCDEVLITDDHTVVGDAIARVEPAAIFGTQMERHVGKRLNIPCGVIAAPIHIQDFPVGYRPFLGYEGTNQLVDLIYNSFTLGMEDHLLEIFGGHDTKAVIHKGLSADSDLTWTAAGLAELNKIPGFVRGKVKRNTEKFAREQGISEITVEVLYAAKEAVGA | soluble |
| SHPDLNKLLELWPHIQEYQDLALKHGINDIFQDNGGKLLQVLLITGLTVLPGREGNDAVDNAGQEYELKSINIDLTKGFSTHHHMNPVIIAKYRQVPWIFAIYRGIAIEAIYRLEPKDLEFYYDKWERKWYSDGHKDINNPKIPVKYVMEHGTKIYGSGGSHPDLNKLLELWPHIQEYQDLALKHGINDIFQDNGGKLLQVLLITGLTVLPGREGNDAVDNAGQEYELKSINIDLTKGFSTHHHMNPVIIAKYRQVPWIFAIYRGIAIEAIYRLEPKDLEFYYDKWERKWYSDGHKDINNPKIPVKYVMEHGTKIYGSHHHHHH | soluble |
| MGSDKIHHHHHHMYLGIDVGGTHTDAVVLDAQKRIQAWAKVPTLHHDLLSSVTQALDSVLQSVAAQDIVRLNLSTTLSTNAIVESKTEDVGVLVSSGPGIDPENFRQGGFFFPLSGSIDHRGKVIAAMEQDELAAAVRRCCDSGIRVYAAVGKFSTRNPDHEETMAHEAMQCGDFVSMGHRLSGQLSFPRRVATAYYNSAVWRLYNSFADAVESSARAKGVTAPVHILKADGGTMPLAVSRRMPVESILSGPAASVMGIVALYDIREDAVILDIGGTTTDIALFASGSPVIENDGISVGSYPTLVRALRTLSIGVGGDSRLRIAAGAVRVGPDRSGPCVANGGTHVALMDAMNYLEVAAVGDVEASREAVRQLASLWDMYPEKLAREALDTAVNTICAAVDRLLDEVNAQPVYTIIELLDGVKLNPGRVFVMGGPAAAFAPLLRNVMNRRIDVPRDHAVANAVGAALTRTTAELELFADTEKGLVFVPTLGLRREAPLGYNLDDAVADAGRYLTESLAGMGIHIRPEDVDVLEAGSFNMVDMYGGKGRNIRVKCQVRPGISL | not soluble |
| MGKEVMGKKENEMAQEKERPAGSQSLFRGLMLIEILSNYPNGCPLAHLSELAGLNKSTVHRLLQGLQSCGYVTTAPAAGSYRLTTKFIAVGQKALSSLNIIHIAAPHLEALNIATGETINFSSREDDHAILIYKLEPTTGMLRTRAYIGQHMPLYCSAMGKIYMAFGHPDYVKSYWESHQHEIQPLTRNTITELPAMFDELAHIRESGAAMDREENELGVSCIAVPVFDIHGRVPYAVSISLSTSRLKQVGEKNLLKPLRETAQAISNELGFTVRDDLGAIT | soluble |

Source: the DeepSol protein solubility set
